Measurements reported in article PMC8789049, “Regulation of AR mRNA translation in response to acute AR pathway inhibition”.

T1: YTHDF3 (UniProt Q7Z739 1-585)
T1 sequence: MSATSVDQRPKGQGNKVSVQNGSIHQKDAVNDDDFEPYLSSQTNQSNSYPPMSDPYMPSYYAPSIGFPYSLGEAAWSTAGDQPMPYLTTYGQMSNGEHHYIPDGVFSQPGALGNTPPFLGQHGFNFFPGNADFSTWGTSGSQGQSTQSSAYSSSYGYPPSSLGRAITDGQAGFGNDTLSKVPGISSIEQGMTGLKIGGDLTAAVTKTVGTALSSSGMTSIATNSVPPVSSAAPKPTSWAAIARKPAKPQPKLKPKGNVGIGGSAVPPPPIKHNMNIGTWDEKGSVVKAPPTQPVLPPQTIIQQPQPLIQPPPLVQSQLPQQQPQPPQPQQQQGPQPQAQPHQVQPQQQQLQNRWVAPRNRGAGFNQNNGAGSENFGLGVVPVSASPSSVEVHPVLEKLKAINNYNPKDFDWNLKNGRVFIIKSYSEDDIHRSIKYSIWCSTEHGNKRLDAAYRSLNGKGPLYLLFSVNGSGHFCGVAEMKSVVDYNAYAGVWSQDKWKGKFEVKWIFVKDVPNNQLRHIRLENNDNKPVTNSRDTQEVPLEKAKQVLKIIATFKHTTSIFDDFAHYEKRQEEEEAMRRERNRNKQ


These binders were tested against T1, YTHDF3 (assay: EMSA; REMSA: 6.25 nM biotin probe, 100 mM HEPES pH 7.3, 200 mM KCl, 10 mM MgCl2, 10 mM DTT, 5% glycerol, 2 ug tRNA, 20 ul, 30 min, temperature not stated; 6% native PAGE in 0.5x TBE). Details: protein: recombinant; tags: His-tag (pET-28a(+)-TEV); label: biotin.

Binder | binding result
CCUGUGAGGGACUGGCCACUCAGACCCACU (ssRNA, m6A in GGm6ACU) [6908-m6A] | binds
CCUGUGAGGGACUGGCCACUCAGACCCACU (ssRNA) [6908-UM] | no binding
AACUCAAUGGAACUGACUGAGAUUUACCAC (ssRNA, m6A in GAm6ACU) [8953-m6A] | binds
AACUCAAUGGAACUGACUGAGAUUUACCAC (ssRNA) [8953-UM] | no binding
GGAUAUUUUGAAGGACUGUCAUAUAUCUUU (ssRNA, m6A in GGm6ACU) [7301-m6A] | binds
GGAUAUUUUGAAGGACUGUCAUAUAUCUUU (ssRNA) [7301-UM] | no binding

What follows are binders tested against G3BP1 (UniProt Q13283 1-466) in the same assay as above. Details: protein: recombinant; tags: His-tag (pET-28a(+)-TEV); chain copies: 2; label: biotin.
Sequence of G3BP1 (Q13283 whole entry): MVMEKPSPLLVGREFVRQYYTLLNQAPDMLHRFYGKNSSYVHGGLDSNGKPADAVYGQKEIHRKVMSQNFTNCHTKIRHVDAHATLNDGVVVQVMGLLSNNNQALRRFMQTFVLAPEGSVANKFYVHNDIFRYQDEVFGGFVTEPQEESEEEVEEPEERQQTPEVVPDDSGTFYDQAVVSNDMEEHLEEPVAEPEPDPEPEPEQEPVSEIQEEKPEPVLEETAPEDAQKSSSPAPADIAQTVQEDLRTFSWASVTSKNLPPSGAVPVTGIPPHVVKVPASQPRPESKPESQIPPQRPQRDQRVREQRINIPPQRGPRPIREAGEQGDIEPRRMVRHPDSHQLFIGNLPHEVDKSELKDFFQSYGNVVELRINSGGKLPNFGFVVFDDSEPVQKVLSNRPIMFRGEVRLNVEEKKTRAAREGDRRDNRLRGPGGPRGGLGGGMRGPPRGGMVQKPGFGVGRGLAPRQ

Binder | binding result
CCUGUGAGGGACUGGCCACUCAGACCCACU (ssRNA) [6908-UM] | binds
AACUCAAUGGAACUGACUGAGAUUUACCAC (ssRNA) [8953-UM] | binds
GGAUAUUUUGAAGGACUGUCAUAUAUCUUU (ssRNA) [7301-UM] | binds
